Patent US9404925B2, “Cancer antigen and use thereof” (MEDINET CO., LTD., priority 2002, dated 2016)

Assays:
[1] = tested on: CD4 positive helper T cell lines (Th); experiment: [3H] thymidine intake of mouse CD4 positive helper T cell line induced by hsp105; format: cell-based, BALB/c mouse; details: spleen cells pulsed with hsp105 protein, 72 hours, FIG. 6B
Procedure: (§1) The spleen of a BALB/c mouse was collected and ground to separate spleen cells. 200,000 spleen cells per well on a 96-well flat plate were cultured in 200 μl of a culture solution containing IL-2 (100 IU/ml) and a 2 μg/ml recombinant hsp105 protein for 1 week. Thereafter, every week, the culture product was repeatedly stimulated with 200,000 spleen cells, which had been pulsed with a 2 μg/ml recombinant hsp105 protein and then exposed to radioactive rays, so as to establish multiple CD4 positive helper T cell lines (Th). The expression of CD4 and CD8 on the surface of cells was confirmed by performing immunofluorescent staining with Monoclonal Antibody MOUSE CD4-FITC, CD8-FITC (IMMUNOTECH, Marseille, France), and then analyzed with FACS (FIG. 6A). It was examined by the intake of [^3H] thymidine, whether or not Th specifically reacts with the hsp105 protein and grows. Specifically, 150,000 spleen cells were placed in each well of a 96-well flat plate, and several wells were pulsed with the hsp105 protein overnight, and the other wells were not pulsed therewith. […] Thereafter, the intake of [^3H] thymidine was measured with a liquid scintillation counter. […] Thus, IFN-γ and IL-4 secreted from Th as a result of the reaction were measured with Mouse IFN-γ, IL-4 ELISA Ready-SET-Go! […]

[2] = tested on: CD4 positive helper T cell lines (Th); experiment: [3H] thymidine intake of CD4 positive helper T cell line of colon cancer patient induced by hsp105; format: cell-based, human; details: FIG. 7A
Procedure: as §1, with “6A).” for “6A). It was examined by the intake of [^3H] thymidine, whether or not Th specifically reacts with the hsp105 protein and grows. Specifically, 150,000 spleen cells were placed in each well of a 96-well flat plate, and several wells were pulsed with the hsp105 protein overnight, and the other wells were not pulsed therewith.”
(§2) Monocytes were separated from the peripheral blood. […] The expression of CD4 and CD8 on the surface of cells was confirmed by performing immunofluorescent staining using Pharmingen anti-human CD4, CD8-FITC, and then analyzed with FACS. […] In addition, in the same manner as in Example 7, IFN-γ and IL-4 secreted from Th as a result of the reaction were measured using Human IFN-γ, IL-4 US ELISA Kit (BIOSOURCE, Camarillo, Calif.). […]

[3] = tested on: CD4 positive helper T cell lines (Th); experiment: IFN-γ and IL-4 ELISA of mouse Th induced by hsp105; format: cell-based, BALB/c mouse; details: supernatant 24 hours after addition of Th, FIG. 6C
Procedure: as §1

[4] = tested on: CD4 positive helper T cell lines (Th); experiment: IFN-γ and IL-4 ELISA of colon cancer patient Th induced by hsp105; format: cell-based, human; details: FIG. 7B
Procedure: as §1, with “6A).” for “6A). It was examined by the intake of [^3H] thymidine, whether or not Th specifically reacts with the hsp105 protein and grows. Specifically, 150,000 spleen cells were placed in each well of a 96-well flat plate, and several wells were pulsed with the hsp105 protein overnight, and the other wells were not pulsed therewith.”
as §2

Colon-26 = experiment: In vivo antitumor activity of mouse Th induced by hsp105, local injection into Colon-26 tumor; design: species or system BALB/c mouse; details: tumor with a size of 3 mm, FIG. 6D
Procedure: as §1

B1: hsp105 protein: recombinant hsp105 protein, heat shock protein cancer antigen (SEQ ID NO: 1), used to induce CD4 positive helper T cell lines (protein, listed as Homo sapiens)
chain: MSVVGLDVGSQSCYIAVARAGGIETIANEFSDRCTPSVISFGSKNRTIGVAAKNQQITHANNTVSNFKRFHGRAFNDPFIQKEKENLSYDLVPLKNGGVGIKVMYMGEEHLFSVEQITAMLLTKLKETAENSLKKPVTDCVISVPSFFTDAERRSVLDAAQIVGLNCLRLMNDMTAVALNYGIYKQDLPSLDEKPRIVVFVDMGHSAFQVSACAFNKGKLKVLGTAFDPFLGGKNFDEKLVEHFCAEFKTKYKLDAKSKIRALLRLYQECEKLKKLMSSNSTDLPLNIECFMNDKDVSGKMNRSQFEELCAELLQKIEVPLYSLLEQTHLKVEDVSAVEIVGGATRIPAVKERIAKFFGKDISTTLNADEAVARGCALQCAILSPAFKVREFSVTDAVPFPISLIWNHDSEDTEGVHEVFSRNHAAPFSKVLTFLRRGPFELEAFYSDPQGVPYPEAKIGRFVVQNVSAQKDGEKSRVKVKVRVNTHGIFTISTASMVEKVPTEENEMSSEADMECLNQRPPENPDTDKNVQQDNSEAGTQPQVQTDAQQTSQSPPSPELTSEENKIPDADKANEKKVDQPPEAKKPKIKVVNVELPIEANLVWQLGKDLLNMYIETEGKMIMQDKLEKERNDAKNAVEEYVYEFRDKLCGPYEKFICEQDHQNFLRLLTETEDWLYEEGEDQAKQAYVDKLEELMKIGTPVKVRFQEAEERPKMFEELGQRLQHYAKIAADFRNKDEKYNHIDESEMKKVEKSVNEVMEWMNNVMNAQAKKSLDQDPVVRAQEIKTKIKELNNTCEPVVTQPKPKIESPKLERTPNGPNIDKKEEDLEDKNNFGAEPPHQNGECYPNEKNSVNMDLD
hsp105 protein-specific growth of Th ([3H] thymidine intake) [1]: specifically reacted with the hsp105 protein and grew
hsp105 protein-specific growth of Th ([3H] thymidine intake) [2]: specifically reacted with the hsp105 protein and grew
IFN-γ and IL-4 secreted from Th [3]: generates a large amount of IFN-γ
IFN-γ and IL-4 secreted from Th [4]: generates a large amount of IFN-γ
growth of Colon-26 tumor after local injection of Th (Colon-26): clearly retarded
